B1: 75110_06D16A (antibody, V domains shown)
VH: QVQLQQWGAGLLKPSETLSLTCAVYGGSFSGYYWSWIRQPPGKGLEWIGEINHSGSTNYNPSLKSRVTISVVTSKNQFSLKLSSVTAADTAVYYCARVLNWFDPWGQGTLVTVSS
VL: DIQMTQSPSSVSASVGDRVTITCRASQDIADWLAWYQQKPGKAPKLLIYAASSFQSGVPSRFSGSGSGTDFTLTISSLQPEDFATYFCQQANSFPYTFGQGTKLEIK
notes: Tested as antibody purified from AlivaMab Mouse hybridoma supernatant (human variable domains, kappa; mouse Fc, captured on anti-mouse IgG Fc sensors); also called ADS75110 purified AMM Ab
B2: 75110_07B16A (antibody, V domains shown)
VH: QVQLQQWGAGLLKPSETLSLTCAVYGGSFSGYYWSWIRQSPGKGLEWIGEINQSGSTNYNPSLKSRVTISVDTSKDQFSLKLSSVTAADTAVYYCARVINWFDSWGQGSLVTVSS
VL: DIQMTQSPSSVSASVGDRVTITCRASQGISSWLAWYQQKPGKAPKLLIYDASSFQSGVPSRFSGSGSGTDFTLTISSLQTDDFATYYCQQANSFPYTFGQGTKLEIK
notes: as for B1
B3: 75110_06C16A (antibody, V domains shown)
VH: QVQLQESGPGLVTPSETLSLSCTVSGGSISDYYWSWIRQPGGKGLEWIGRIYSSGSTNYNPSLKSRVTMSVDTSKNQFSLKLSSVTAADTAVYFCARDREDYYYYGMDVWGQGTTVTVSS
VL: DIQMTQSPSSLSASVGDRVTITCQASHDISNYLNWYQQKPGKAPKLLIYAASNLETGVPSRFSGSGSGTDFSFTISSLQPEDIATYYCQQYDHLPLTFGGGTKVEIK
notes: as for B1
B4: 75110_06G04A (antibody, V domains shown)
VH: QVQLLESGPGLVKPSETLSLTCTVSGGSISSYYWSWIRQPAGKGLEWIGRIYISGSTNYNPSLKSRVTMSIDTSENQFSLNLSSVTAADTAVYYCARELERPYYYGMDVWGQGTTVTVSS
VL: DIQMTQSPSSLSASVGDRVTITCQASQDISNYLNWYQQKPGKAPKLLIYNASTLETGVPSRFSGSGSGTDFTFTISSLQPEDIATYYCQQYDNLPLTFGGGTKVEFK
notes: as for B1
B5: 75110_06K03A (antibody, V domains shown)
VH: QVQLQESGPGLVKPSETLSLTCTVSGGSISTYYWSWIRQPAGKGLEWIGRINTSGSTTYNPSLKSRVTMSVDTSKNQFSLKLSSVTAADTAVYYCARELERYYYYGMDVWGQGTTVTVSS
VL: DIQMTQSPSSLSASVGDRVTITCQASQDISNYLNWYQQKPGKAPKLLIYYASILETGVPSRFSGSGSGTDFTFTISSLQPEDIATYYCQQYDSLPLTFGGGTKVEIK
notes: as for B1
B6: 75110_08D24A (antibody, V domains shown)
VH: QVQLQESGPGLVKPSETLSLTCTVSGGSISGFYWSWIRQPAGKGLEWIGRIYTSENTNYNPSLKSRVTMSVDTSKNQFSLKLSSVTAADTAVYYCARDREGYYYYGMDVWGQGTTVTVSS
VL: DIQMTQSPSSLSASVGDRVTITCQASQDISNYLNWYQQKPGKAPKLLIYAASNLETGVPSRFSGSGSGTDFTFTISSLQPEDIATYYCQQYDSLPITFGQGTRLEIK
notes: as for B1
B7: 75110_06E14A (antibody, V domains shown)
VH: QVQLQESGPGLVKPSETLSLTCTVSGGSISNYFWSWIRQPAGKGLEWIGRIYSSGNTNYNPSLKSRVTMSVDTSKNQFSLKLSSVTAADTAVYYCARDREDYYYYGMDVWGQGTTVTVSS
VL: DIQMTQSPSSLSASVGDRVTITCQASQDISNYLNWYQQKPGKAPKLLIYGASILETGVPSRFTGSGSGTDFTFTISSLQPEDIATYYCQQYDSLPITFGQGTRLEIK
notes: as for B1
B8: 75110_08M20A (antibody, V domains shown)
VH: QVQLQESDPGLVKPSETLSLTCTVSGGSISSYYWSWIRQPAGKGLEWIGRIYASGSTNYNPSLKSRVTMSVDTSKNQFSLKLSSVTAADTAVYYCARDREGYYYYGMDVWGQGTTVTVSS
VL: DIQMTQSPSSLSASVGDRVTITCQASQDISKYLNWYQQKPGKAPNLLIYAASNLETGVPSRFSGSGSGTDFTFTISSLQPEDIAAYYCQQYDSLPITFGQGTRLEIK
notes: as for B1
B9: 75110_05L07A (antibody, V domains shown)
VH: EVQLVESGGGLVQPGGSLRLSCAASGFTFSSYWMSWVRQAPGKGLEWVANINQDGSDKYYVDSVKGRFTISRDNVKNSLYLQINSLRAEDTAVYYCAREGGQWLTLDYWGQGTLVTVSS
VL: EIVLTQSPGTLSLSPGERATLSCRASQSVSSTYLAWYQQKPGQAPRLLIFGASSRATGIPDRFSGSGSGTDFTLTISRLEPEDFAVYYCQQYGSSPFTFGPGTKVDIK
notes: as for B1
B10: 75110_07E04A (antibody, V domains shown)
VH: EVQLVESGGGLVQPGGSLRLSCAVSGFTFSSYDMHWVRQATGKGLEWVSTIGTAGDTYYPGSVKGRFTISRENAKKFLYLQMNSLRAGDTAVYYCARGGYYYYGMDVWGQGTTVTVSS
VL: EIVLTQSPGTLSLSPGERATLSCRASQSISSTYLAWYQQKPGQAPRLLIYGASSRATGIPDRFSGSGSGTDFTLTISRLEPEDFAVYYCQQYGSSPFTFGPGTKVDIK
notes: as for B1
B11: 75110_05E13A (antibody, V domains shown)
VH: EVQLVESGGDLVKPGGSLRLSCAASGFSFSNAWMSWVRQAPGKGLEWVGRVESKTDGGTTDYAAPVKDRFTISRDDSKYTLYLQMNSLKTEDSAVYYCTIGGGFGLELYGFFDYWGQGTLVTVSS
VL: DIQMTQSPSTLSASVGDRVTITCRASQSISSWLAWYQQKPGKAPMLLIYKASSLESGVPSRFSGSGSGTEFTLTISSLQPDDFATYYCLQYNSYYTFGQGTKLEIK
notes: Tested as antibody purified from AlivaMab Mouse hybridoma supernatant (captured by anti-mouse IgG Fc)
B12: 75110_05G15A (antibody, V domains shown)
VH: QVQLQESGPGLVKPSQTLSLTCTVSGGSISSGGYFWSWIRQHPGKGLEWIGCIYYSGSTYYIPSLKSRVTISVDTSKNQFSLKLRSVTAADTAVYYCARDGYDYWYFDLWGRGTLVTVSS
VL: not shown
B13: 75110_05E05A (antibody, V domains shown)
VH: QVQLQESGPGLVKPSETLSLTCTVSGGSIGSYYWSWIRQPAGKGLEWIGRIYTSGSTNYNPSLKSRVTMSFDTSKNQFSLKLNSVTAADTAVYYCATDGGVGDSLDYWGQGTLVTVSS
VL: DIVMTQTPLSLPVTPGEPASISCRSSQSLLDSDDGNTYLDWYLQKPGQSPQLLIYTLSYRASGVPDRFSGSGSGTDFTLKISRVEAEDVGVYYCMQHIEFPFTFGPGTKVDIK
notes: as for B11

The values below come from US20220112288A1 (published 2022).

As usually defined, the Kd is the free concentration of one partner at which half of the binding sites on the other are occupied at equilibrium, for simple one-to-one binding. As a reminder, the koff is the rate constant with which the complex falls apart. The term kon denotes the rate constant with which the complex forms.

Some results are limits rather than exact numbers.

T1 sequence (P16003 26-390 limits assumed): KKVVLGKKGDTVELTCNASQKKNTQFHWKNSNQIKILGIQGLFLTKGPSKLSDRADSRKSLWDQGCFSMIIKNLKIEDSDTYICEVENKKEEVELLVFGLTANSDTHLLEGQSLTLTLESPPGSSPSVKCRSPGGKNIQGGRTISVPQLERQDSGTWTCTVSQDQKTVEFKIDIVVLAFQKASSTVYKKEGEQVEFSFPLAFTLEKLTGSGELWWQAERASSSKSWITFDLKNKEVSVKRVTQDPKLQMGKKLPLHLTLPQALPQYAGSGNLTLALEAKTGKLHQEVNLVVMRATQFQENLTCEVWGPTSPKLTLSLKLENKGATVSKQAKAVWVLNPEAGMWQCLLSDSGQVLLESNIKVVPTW

One assay concerns the target T1, Rhesus macaque CD4-HIS (Acro Biosystems, Cat. CD4-C52H7) (rhesus macaque, UniProt P16003 26-390).
T1 construct: Bought reagent; also called Rhesus CD4; rhesus CD4-HIS; not shown: His tag
Put plainly: BLI (Octet Red384); Ab on anti-mouse Fc (AMC) sensor; rhesus CD4-HIS 100/50/25 nM; global 1:1 fit.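 Note: antibodies loaded at 10 µg/mL, an unrelated mouse-derived antibody served as internal reference, curves fit over association and dissociation phases.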 Background: In BLI a coated tip is dipped into the sample, and binding shifts an interference pattern.
Consider B1, for which the Kd is 240 nM, the Response is 0.09, the koff came out at 0.022 s⁻¹ and the kon came to 91000 M⁻¹ s⁻¹.

In turn, B2 showed a Kd of 13 nM, a Response of 0.17, a koff of 0.0033 s⁻¹ and a kon of 250000 M⁻¹ s⁻¹.

As to B3, binding was characterised by a dissociation constant (Kd) of 27 nM, the Response worked out at 0.15, the off-rate (koff) is 0.002 s⁻¹ and the on-rate (kon) is 73000 M⁻¹ s⁻¹.

With B4, the affinity, expressed as Kd, was 2.1 nM; the Response amounted to 0.05; the koff turned out to be 0.0011 s⁻¹; the kon worked out at 510000 M⁻¹ s⁻¹.

B5 displayed an equilibrium dissociation constant (Kd) of 7.8 nM, a Response of 0.13, a koff of 0.00035 s⁻¹ and an association rate constant (kon) of 45000 M⁻¹ s⁻¹.

Regarding B6, binding was put at a Kd of 53 nM, the Response stood at 0.05, the off-rate (koff) turned out to be 0.0017 s⁻¹ and the on-rate constant (kon) came out at 32000 M⁻¹ s⁻¹.

Take B7: the Kd stood at 230 nM, the Response is 0.1, the off-rate constant (koff) amounted to 0.00069 s⁻¹ and the on-rate constant (kon) was determined as 3000 M⁻¹ s⁻¹.

Take B8: the Kd is 17 nM, the Response is 0.17, the dissociation rate constant (koff) turned out to be 0.0022 s⁻¹ and the association rate constant (kon) is 130000 M⁻¹ s⁻¹.

As to B9, the affinity, expressed as Kd, was 7.6 nM; the Response came out at 0.31; the dissociation rate constant (koff) came to 0.0011 s⁻¹; the kon turned out to be 150000 M⁻¹ s⁻¹.

B10 displayed a dissociation constant (Kd) of 2.6 nM, a Response of 0.02, a koff of 0.00042 s⁻¹ and an association rate constant (kon) of 160000 M⁻¹ s⁻¹.

Another assay addresses T2, Recombinant human CD4 (R&D Systems, Cat. 10327-CD) (human, UniProt P01730 26-390, limits assumed).
T2 construct: Soluble analyte in the Octet assay
The assay can be described thus: BLI Octet, mAb on anti-mouse Fc sensor, CD4 100/50/25 nM, 1:1 global fit.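 Note: antibodies loaded at 10 µg/mL, an unrelated mouse-derived antibody served as internal reference control, association and dissociation phases fitted after Savitzky-Golay smoothing.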
B11: the Kd was determined as 2.2 nM, the Response came out at 0.37, the koff is 0.00022 s⁻¹ and the kon came out at 100000 M⁻¹ s⁻¹.

Consider B12, for which the Kd came out at 13 nM, the Response was determined as 0.09, the off-rate constant (koff) stood at 0.0022 s⁻¹ and the on-rate constant (kon) was 170000 M⁻¹ s⁻¹.

As to B13, the Kd was under 0.001 nM, the Response amounted to 0.18, the koff was under 1e-07 s⁻¹ and the kon worked out at 34000 M⁻¹ s⁻¹.
